B1: PPP2R2B (parent)
chain: RNTKRDVTLEASRENSKPRAILKP

Variants of: B1
Experiment: protein stability index of a GFP-peptide fusion (GPS, HEK-293T) (PSI 1-6); higher = more stable
Conditions: c terminus: a fixed tail appended
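Also: lentivirally expressed fusions sorted by FACS into six bins by GFP to DsRed ratio, PSI derived from sequencing read proportions per bin multiplied by bin number.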

Protein stability index: each site, then its substitutions
K4: N 4.77, H 4.84, E 4.6, C 3.8, W 3.39
R19: K 4.7, H 4.46, C 4.69, L 4.7, G 4.86, I 4.39
I21: E 5.34, M 4.67, V 4.6, W 4.7, H 4.52, C 4.85, R 5.35, F 4.3
T3: E 4.88, V 4.57, G 4.29, K 4.91, W 4.05, L 4.64, N 3.95, F 4.17, Q 4.75, M 4.35, Y 3.84, S 4.61
V7: P 4.98, I 4.25, F 4.43, R 4.59, S 4.58, N 4.76
L22: Y 4.37, W 3.98, C 4.47, V 4.72, F 4.5, E 5.31, A 4.99, G 4.69
K17: E 5.13, F 4.37, G 4.89, C 4.18, A 4.66, I 4.33, D 4.57
D6: A 4.64, K 4.45, T 4.34, V 4.08, I 3.64, R 4.29
L9: E 4.78, H 4.46, I 4.38, A 4.9, K 4.26, M 4.84, C 4.78, Y 4.52, Q 5.07
R5: N 4.92, D 4.68, V 4.91, C 4.43, H 4.85, K 4.62, Q 4.54, L 4.4, P 4.79
P24: Y 3.58, K 4.26, H 4.41, S 4.49, V 4, G 4.65
R1: T 4.99, K 4.65, V 4.44, I 4.61, N 4.79, A 4.61
S16: V 4.24, M 4.53, Y 4.17, C 4.23, T 4.2, D 4.58, G 4.42, L 4.16, P 4.96, Q 4.61
E14: F 3.88, N 4.72, P 4.3, C 3.9
N15: Q 4.73, M 4.09, A 4.29, Y 4.09, R 4.22, D 4.77, T 4.49, I 4.59, P 4.32, W 3.77, E 4.92
A20: F 4.03, N 4.64, T 4.49, L 4.19, P 4.3, H 4.85, Y 4.1
S12: G 5.13, M 4.12, W 3.79, N 4.43, F 3.58, A 4.12
R13: I 4.53, D 5.09, W 3.56, P 4.46, K 4.69, T 4.07, A 4.92
K23: A 4.5, H 4.57, G 4.48, Q 4.89, M 3.94
N2: W 3.34, G 4.81, I 4.69, Q 4.06, T 4.42, E 4.82
P18: R 4.79, F 3.79, D 5.07, Q 4.76, L 4.27, N 4.55, C 4.25, E 5
E10: H 4.12, W 2.77, K 4.52
A11: G 4.49, R 4.58, D 4.78, K 4.23, I 3.92
T8: D 5.02, L 4.62, E 4.9, P 4.76, Q 4.62, V 4.25, K 4.86
